Assay results taken from patent publication US8507446B2, “Use of PEDF-derived polypeptides for treating liver cirrhosis” (MacKay Memorial Hospital, priority 2011, dated 2013).

Experiments:
[1] = test system: liver-derived progenitor cells (LDPCs) in primary rat liver cells; assay: Clonogenic capacity of liver cells (LDPC colony formation); assay type: cell-based; conditions: basal medium with 4.5 nM PEDF, 50 nM 34-mer, 50 nM 44-mer or 10% FBS; after 11 days in culture
Procedure: Liver cells from Sprague Dawley rats were harvested by 2-step in situ collagenase perfusion technique. The cells were then washed in phosphate buffered saline and centrifuged (50 g for 5 minutes) twice at room temperature. The cells were not further subjected to any fractionation as previously described (Sahin M B et al., Liver Transpl. 2008 14(3):333-45). Freshly isolated rat liver cells were cultured in a medium consisting of 75% Dulbecco's modified Eagle's medium (DMEM) and 25% MCDB 201 (Sigma-Aldrich) supplemented with 10% fetal bovine serum, 1 mg/mL of bovine serum albumin (BSA; Sigma), 100 μM of β-mercaptoethanol (Gibco, Carlsbad, Calif.), 25 mM of 4-2-hydroxyethyl-1-piperazineethanesulfonic acid (HEPES), 5 mM of Nicotinamide (Sigma-Aldrich), 1% SITE liquid medium (Sigma-Aldrich), and penicillin (100 μg/ml)/streptomycin (100 μg/ml; Invitrogen, Carlsbad, Calif.) on Type I collagen (Sigma, St. Louis, Mo.) coated tissue culture plates or dishes at a density of 1×10^4 cells/cm^2 at 37° C. in 5% CO2.
To verify the function of 44-mer PEDF, primary rat liver cells were isolated in accordance with steps described above and cultivated (about 1×10^5 per well of 6-well plate; 1×10^4 cells/cm^2) in a conventional basal medium, which was further supplemented with 4.5 nM PEDF, 50 nM 34-mer PEDF, 50 nM 44-mer PEDF or 10% FBS. Medium was changed every 3 days. After being placed in culture for 11 days, clonogenic capacity of liver cells was continuously monitored by phase-contrast microscopy. During this time period, liver-derived progenitor cells (LDPCs) began markedly emerged in primary liver cultures while hepatocytes started dying out. Few colonies were formed by liver cells when continuously cultivated in basal medium, or medium supplemented with 34-mer or FBS.

[2] = test system: culture-activated primary rat HSCs; assay: Activation of culture-activated primary hepatic stellate cells; assay type: cell-based
Procedure: Primary HSCs were isolated by in situ perfusion with collagenase and pronase from livers of male Sprague-Dawley rats (300-450 g), followed by a 25%/50% Percoll gradient centrifugation at 4° C. HSCs were isolated from the upper layer of the discontinuous Percoll density gradient as previously described method (Titos et al., FASEB J 2003 17:1745-1747). Then cells were re-suspended in Dulbecco's modified Eagle's medium (DMEM) supplemented with 10% fetal bovine serum (FBS) and 1% penicillin/streptomycin and plated on 100-mm plastic dishes. Cell purity was verified to be approximately 95-98% by vitamin A fluorescence on day 2 after isolation. HSCs were activated by culturing the cells on plastic for 10 days and then passaged by trypsin-EDTA treatment. Subsequently, the activated HSCs were incubated in 10% FBS-DMEM for 2 days and then used for further experiments.
Deparaffinized liver tissue sections or 4% paraformaldehyde fixed HSCs were blocked with 10% goat serum and 5% BSA for 1 h. Dual staining was done using primary antibodies against human PEDF (se-59641; Santa Cruz Biotechnology, CA, USA) or α-SMA (ab5694 or ab7817; Abcam), PPARγ (sc-7273; Santa Cruz Biotechnology), albumin (sc-46295; Santa Cruz Biotechnology) or cytokeratin (CK) 18 (GTX112978; GeneTex, Inc.) at 37° C. for 2 h, followed by incubation with the appropriate rhodamine- or FITC-conjugated donkey IgG for 1 hr at room temperature. Nuclei were located by counterstaining with Hoechst 33258 for 7 min. Images were captured using a Zeiss epifluorescence microscope with a CCD camera.
Cells were scraped into lysis buffer (150 μL/35-mm well) containing 20 mM HEPES (pH 7.4), 1% SDS, 150 mM NaCl, 1 mM EGTA, 5 mM β-glycerophosphate, 10 mM sodium pyrophosphate, 10 mM sodium fluoride, […] sodium orthovanadate, 10 μg/mL leupeptin, and 10 μg/mL aprotinin. The lysate was incubated on ice for 15 min. Total cell lysate was also separated into cytoplasmic and nuclear fractions using the NE-PER nuclear and cytoplasmic extraction kit (Pierce, Rockford, Ill.) according to the manufacturer's instructions. Each cellular fraction was then resolved by SDS-PAGE and then electrotransferred to polyvinylidene difluoride membranes (Millipore, Bedford, Mass.) and processed for immunoblot analysis. Antibodies used in the immunoblot study included human PEDF (sc-59641; Santa Cruz Biotechnology), mouse PEDF (sc-74253; Santa Cruz Biotechnology), type I collagen 1A1 (sc-25974; Santa Cruz Biotechnology), α-SMA (ab5694 or ab7817; Abcam), PPARγ••(sc-7273; Santa Cruz Biotechnology), MCP-1 (ab7202; Abcam Ltd), α-actin (Sigma), epithelial cell adhesion molecule (EpCAM; sc-66020; Santa Cruz Biotechnology), hepatocytes nuclear factor and (HVF)3-β (sc-6554; Santa Cruz Biotechnology). Proteins of interest were detected using the appropriate IgG-HRP secondary antibody and ECL reagent. X-ray films were scanned on a Model GS-700 Imaging Densitometer (Bio-Rad Laboratories, Hercules, Calif.) and analyzed using Labworks 4.0 software. For quantification, blots from at least three independent experiments were used.
After treatment, primary rat HSCs were fixed for 2 h with 4% paraformaldehyde, washed by PBS and then permeabilized for 5 min with 0.1% Triton X-100. Changes in F-actin structures were detected by […] rhodamine-conjugated phalloidin (Sigma) for 1 h at room temperature. Stained F-actin was visualized using a Zeiss Axiovert 25 microscope.
To verify whether the PEDF-derived peptides, particularly, 34-mer PEDF and 44-mer PEDF, may prevent HSCs from activation, culture-activated primary rat HSCs were treated with 4.5 nM PEDF, 50 nM 44-mer, 50 nM 34-mer or PEDF solvent (20 mM Tris/HCl, pH 7.4, 100 mM NaCl) for 48 hours. […] Immunofluorescent assay also confirmed that 34-mer PEDF reduced the levels of α-SMA in culture-activated HSCs as compared with 44-mer PEDF treatment (FIG. 6F). Such result is consistent with the finding in Example 1 that PEDF prevents HSCs from activation by induction of PPARγ.

[3] = 48 hours vs solvent, 4.5 nM PEDF, 50 nM 34-mer, 50 nM 44-mer

B1: pigment-epithelium-derived factor (protein, UniProt P36955 20-418, looked up)
Pigment epithelium-derived …: QNPASPPEEGSPDPDSTGALVEEEDPFFKVPVNKLAAAVSNFGYDLYRVRSSTSPTTNVLLSPLSVATALSALSLGAEQRTESIIHRALYYDLISSPDIHGTYKELLDTVTAPQKNLKSASRIVFEKKLRIKSSFVAPLEKSYGTRPRVLTGNPRLDLQEINNWVQAQMKGKLARSTKEIPDEISILLLGVAHFKGQWVTKFDSRKTSLEDFYLDEERTVRVPMMSDPKAVLRYGLDSDLSCKIAQLPLTGSMSIIFFLPLKVTQNLTLIEESLTSEFIHDIDRELKTVQAVLTVPKLKLSYEGEVTKSLQEMKLQSLFDSPDFSKITGKPIKLTQVEHRAGFEWNEDGAGTTPSPGLQPAHLTFPLDYHLNQPFIFVLRDTDTGALLFIGKILDPRGP
notes: pigment-epithelium-derived factor protein, used at 4.5 nM (200 ng/ml)
[1]
  colonies of LDPCs formed: dense colonies
[2]; [3]
  Col1a1 expression (immunoblot): significantly reduced
  MCP-1 expression (immunoblot): significantly reduced
  amounts of PPARγ (immunoblot): enhanced
  α-SMA expression (immunoblot): significantly reduced
[2]; culture-activated HSCs
  stress fiber (F-actin, rhodamine-phalloidin staining): reduced
[2]; culture-activated HSCs, 34-mer compared with 44-mer PEDF treatment
  α-SMA by immunofluorescent staining: reduced
[2]; culture-activated HSCs, phase contrast / immunofluorescence
  HSC morphology: dendritic-like morphology with retracted cytoplasm
